{"source": "paper PMC8018905", "key": {"[1]": {"biological_target": "recombinant angiotensin-converting enzyme 2 (ACE2) (UniProt Q9BYF1)", "sequence (Q9BYF1 18-740)": "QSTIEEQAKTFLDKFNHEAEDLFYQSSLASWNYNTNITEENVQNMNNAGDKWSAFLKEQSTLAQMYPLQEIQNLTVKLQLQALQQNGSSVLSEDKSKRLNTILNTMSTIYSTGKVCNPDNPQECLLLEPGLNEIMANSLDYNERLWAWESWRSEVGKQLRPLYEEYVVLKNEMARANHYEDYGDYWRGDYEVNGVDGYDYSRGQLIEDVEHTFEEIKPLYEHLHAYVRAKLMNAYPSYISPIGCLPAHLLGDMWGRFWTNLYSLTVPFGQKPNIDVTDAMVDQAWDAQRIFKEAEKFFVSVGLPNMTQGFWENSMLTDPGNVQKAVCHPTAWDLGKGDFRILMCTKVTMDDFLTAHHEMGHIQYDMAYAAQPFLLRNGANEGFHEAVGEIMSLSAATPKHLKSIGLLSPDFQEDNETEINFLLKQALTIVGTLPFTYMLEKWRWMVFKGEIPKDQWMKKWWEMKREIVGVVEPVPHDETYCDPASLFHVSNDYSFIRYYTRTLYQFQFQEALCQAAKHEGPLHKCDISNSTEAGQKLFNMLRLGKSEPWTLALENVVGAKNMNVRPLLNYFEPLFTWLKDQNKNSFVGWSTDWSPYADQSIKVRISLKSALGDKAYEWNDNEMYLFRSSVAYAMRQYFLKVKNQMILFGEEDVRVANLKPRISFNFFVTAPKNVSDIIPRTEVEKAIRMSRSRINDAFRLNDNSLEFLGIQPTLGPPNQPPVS", "test": "electrochemical impedance spectroscopy"}, "[2]": {"biological_target": "recombinant angiotensin-converting enzyme 2 (ACE2) (UniProt Q9BYF1)", "test": "electrochemical impedance spectroscopy", "remark": "listed apart in the source"}}, "note": "Where two headings read alike, the source gives them in different places."}
{"substance": "recombinant SARS-CoV-2 S-protein receptor-binding domain (from UniProt P0DTC2) (domain or fragment; other documents disagree on this pair)", "values": [{"measurement": "EC50", "setting": "[1]", "value": 5.1, "unit": "µM"}, {"measurement": "EC50", "setting": "[2]", "value": 1.74, "unit": "µM"}]}
